{"source": "patent US20250333474A1", "target": "T1, H-2K^b of MHC class I of MutuDC1940 cells (without loaded OVA^257-264 peptide) (mouse)", "T1 chain 1": "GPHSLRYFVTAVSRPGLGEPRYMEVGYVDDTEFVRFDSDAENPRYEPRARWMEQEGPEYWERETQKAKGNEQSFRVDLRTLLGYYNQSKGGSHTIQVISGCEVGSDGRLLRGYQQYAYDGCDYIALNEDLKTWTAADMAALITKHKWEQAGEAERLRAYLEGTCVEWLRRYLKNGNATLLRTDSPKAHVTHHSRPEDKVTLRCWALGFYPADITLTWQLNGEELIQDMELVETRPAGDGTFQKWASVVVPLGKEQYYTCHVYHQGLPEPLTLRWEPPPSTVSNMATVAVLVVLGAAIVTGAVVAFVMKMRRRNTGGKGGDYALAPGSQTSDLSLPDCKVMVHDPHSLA", "T1 chain 2": "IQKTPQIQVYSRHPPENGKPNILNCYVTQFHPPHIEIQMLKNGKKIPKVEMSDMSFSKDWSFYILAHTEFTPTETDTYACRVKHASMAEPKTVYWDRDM", "test": "peptide loading on MutuDC1940 cells for 24 h, read by 25D1.16 staining and flow cytometry", "details": "remark: other sources report otherwise", "data": [{"binder": "SIINFEKL", "note": "[OVA^257-264 antigen peptide]", "values": [{"measurement": "saturate peptide concentration", "result": 2, "unit": "µg/mL"}]}]}
